# Patent EP4624492A1 (Shanghai Hongcheng Biopharmaceutical Co., Ltd., dated 2025)
# Positions count from the first letter of the chain named.
# B1: 569D11B5_mIgG2a (antibody)
# heavy: EVQLIESGGGLVQPKGSLKLSCAASGFNFNAYAMNWVRQAPGKGLEWVARIRSKSNDFATYYADSVKGRFTISRDDSENMLFLQMNNLKTEDTAMYYCVRHGRRDLLYSMDFWGQGTSVTVSSAKTTAPSVYPLAPVCGDTTGSSVTLGCLVKGYFPEPVTLTWNSGSLSSGVHTFPAVLQSDLYTLSSSVTVTSSTWPSQSITCNVAHPASSTKVDKKIEPRGPTIKPCPPCKCPAPNLLGGPSVFIFPPKIKDVLMISLSPIVTCVVVDVSEDDPDVQISWFVNNVEVHTAQTQTHREDYNSTLRVVSALPIQHQDWMSGKEFKCKVNNKDLPAPIERTISKPKGSVRAPQVYVLPPPEEEMTKKQVTLTCMVTDFMPEDIYVEWTNNGKTELNYKNTEPVLDSDGSYFMYSKLRVEKKNWVERNSYSCSVVHEGLHNHHTTKSFSRTPGK
# light: DIVMTQAAFSNPVTLGTSASISCRSSKSLLHSNGITYLFWYLQKPGQSPQLLIYQMSNLASGVPDRFSGSGSGTDFTLRISRVEAEDVGVYYCAQSLELPLTFGGGTKLEIKRADAAPTVSIFPPSSEQLTSGGASVVCFLNNFYPKDINVKWKIDGSERQNGVLNSWTDQDSKDSTYSMSSTLTLTKDEYERHNSYTCEATHKTSTSPIVKSFNRNEC
# notes: also called mIgG2a-subclass chimeric antibody 569D11B5
# B2: 589D7C7_mIgG2a (antibody)
# heavy: B1 heavy with I5V, D57N, G68D, N79S, L81V, F82Y, Q84E
# light: B1 light with G89A
# notes: also called mIgG2a-subclass chimeric antibody 589D7C7
# B3: 27B9-1G3_hIgG1 (antibody, V domains shown)
# VH: EIQLQQSGPELEKPGASVKISCKASGYSFTGYNMNWVKKSNGKSLEWIGNIDPYYGGTNYNQKFKGKATLTVDKSSSTAYMQLKSLTSEDSAVYYCARETWFITTGVIKKGFYFDYWGQGTTLTVSS
# VL: EIVLTQSPTTMAASPGEKITLACSASSIISSNYLHWYQQKPGFSPKLLIYRTSSLASGVPARFSGSGSGTSYSLTIGTMEAEDVATYYCQQGSSIPRTFGGGTKLEIKR
# notes: also called hIgG1-subclass chimeric antibody 27B9-1G3
# B4: 559E1B10_mIgG2a (antibody)
# heavy: KVQLQQSGPVLVKPGASVKMSCKASGYTFTDYYVNWMKQNYGKSPEWIGVINPHNGDTRYNQKFKGKATLTVDKSSSTANMELTSLTSGDSAVYYCASWLRRGYYFDSWGQGTTLTVSSAKTTAPSVYPLAPVCGDTTGSSVTLGCLVKGYFPEPVTLTWNSGSLSSGVHTFPAVLQSDLYTLSSSVTVTSSTWPSQSITCNVAHPASSTKVDKKIEPRGPTIKPCPPCKCPAPNLLGGPSVFIFPPKIKDVLMISLSPIVTCVVVDVSEDDPDVQISWFVNNVEVHTAQTQTHREDYNSTLRVVSALPIQHQDWMSGKEFKCKVNNKDLPAPIERTISKPKGSVRAPQVYVLPPPEEEMTKKQVTLTCMVTDFMPEDIYVEWTNNGKTELNYKNTEPVLDSDGSYFMYSKLRVEKKNWVERNSYSCSVVHEGLHNHHTTKSFSRTPGK
# light: DIVMTQSPATLSVTPGDRVSLSCRASQSISDYLHWYQQKSHESPRLLLKYVSQSISGIPSRFSGSGSGSDFTLTINSVEPEDVGVYYCQNGHSFPLTFGAGTKLELKRADAAPTVSIFPPSSEQLTSGGASVVCFLNNFYPKDINVKWKIDGSERQNGVLNSWTDQDSKDSTYSMSSTLTLTKDEYERHNSYTCEATHKTSTSPIVKSFNRNEC
# notes: also called mIgG2a-subclass chimeric antibody 559E1B10
# B5: 563E10E12_hIgG1 (antibody)
# heavy: not shown
# light: DVVMTQAAFSNPVTLGTSTSISCRSSKSLLHSNGITYLFWYLQKPGQSPQLLIYQMSNLASGVPDRFSGSGSGTDFTLRISRVEAEDVGVYYCAQSLELPLTFGGGTKLEIKRTVAAPSVFIFPPSDEQLKSGTASVVCLLNNFYPREAKVQWKVDNALQSGNSQESVTEQDSKDSTYSLSSTLTLSKADYEKHKVYACEVTHQGLSSPVTKSFNRGEC
# notes: also called hIgG1-subclass chimeric antibody 563E10E12
# B6: 563E10E12_hzH1L1_hIgG1 (antibody)
# heavy: not shown
# light: B5 light with A7S, A8P, F9L, N11L, L15P, T17E, S18P, T19A, R79K, L109V
# notes: Humanized, hIgG1/K
# B7: 559E1B10_hzH1L1_hIgG1 (antibody)
# heavy: not shown
# light: EIVLTQSPATLSLSPGERATLSCRASQSISDYLHWYQQKPGQAPRLLLKYVSQSISGIPARFSGSGSGTDFTLTISSLEPEDFAVYYCQNGHSFPLTFGGGTKVEIKRTVAAPSVFIFPPSDEQLKSGTASVVCLLNNFYPREAKVQWKVDNALQSGNSQESVTEQDSKDSTYSLSSTLTLSKADYEKHKVYACEVTHQGLSSPVTKSFNRGEC
# notes: Humanized, hIgG1/K
# B8: 563E10E12_hzH1L0_DE (antibody, human IgG1, kappa)
# heavy: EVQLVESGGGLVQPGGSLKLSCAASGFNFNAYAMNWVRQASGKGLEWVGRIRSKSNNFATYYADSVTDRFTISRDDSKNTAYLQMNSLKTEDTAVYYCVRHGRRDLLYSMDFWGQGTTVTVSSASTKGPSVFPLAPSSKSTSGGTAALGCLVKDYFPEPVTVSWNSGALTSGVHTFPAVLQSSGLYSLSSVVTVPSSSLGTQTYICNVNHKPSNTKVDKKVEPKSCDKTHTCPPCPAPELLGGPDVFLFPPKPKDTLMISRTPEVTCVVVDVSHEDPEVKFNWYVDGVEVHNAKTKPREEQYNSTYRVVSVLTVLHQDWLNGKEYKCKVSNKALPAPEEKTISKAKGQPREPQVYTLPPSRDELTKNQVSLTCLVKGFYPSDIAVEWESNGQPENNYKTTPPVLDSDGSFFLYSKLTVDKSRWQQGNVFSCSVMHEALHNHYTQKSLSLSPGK
# light: DIVMTQSPLSLPVTPGEPASISCRSSKSLLHSNGITYLFWYLQKPGQSPQLLIYQMSNLASGVPDRFSGSGSGTDFTLKISRVEAEDVGVYYCAQSLELPLTFGGGTKVEIKRTVAAPSVFIFPPSDEQLKSGTASVVCLLNNFYPREAKVQWKVDNALQSGNSQESVTEQDSKDSTYSLSSTLTLSKADYEKHKVYACEVTHQGLSSPVTKSFNRGEC
# B9: 563E10E12_hzH1L0_AF (antibody, human IgG1, kappa)
# heavy: not shown
# light: B8 light
# modifications: afucosylated (expressed in ExpiCHO cells with 2F-peracetyl-fucose)
# B10: 563E10E12_hzH1L0_DLE (antibody, human IgG1, kappa)
# heavy: EVQLVESGGGLVQPGGSLKLSCAASGFNFNAYAMNWVRQASGKGLEWVGRIRSKSNNFATYYADSVTDRFTISRDDSKNTAYLQMNSLKTEDTAVYYCVRHGRRDLLYSMDFWGQGTTVTVSSASTKGPSVFPLAPSSKSTSGGTAALGCLVKDYFPEPVTVSWNSGALTSGVHTFPAVLQSSGLYSLSSVVTVPSSSLGTQTYICNVNHKPSNTKVDKKVEPKSCDKTHTCPPCPAPELLGGPDVFLFPPKPKDTLMISRTPEVTCVVVDVSHEDPEVKFNWYVDGVEVHNAKTKPREEQYNSTYRVVSVLTVLHQDWLNGKEYKCKVSNKALPLPEEKTISKAKGQPREPQVYTLPPSRDELTKNQVSLTCLVKGFYPSDIAVEWESNGQPENNYKTTPPVLDSDGSFFLYSKLTVDKSRWQQGNVFSCSVMHEALHNHYTQKSLSLSPGK
# light: B8 light
# Target: T1, human CCR8 (human, UniProt P51685 1-355)
# T1 sequence (P51685 whole entry): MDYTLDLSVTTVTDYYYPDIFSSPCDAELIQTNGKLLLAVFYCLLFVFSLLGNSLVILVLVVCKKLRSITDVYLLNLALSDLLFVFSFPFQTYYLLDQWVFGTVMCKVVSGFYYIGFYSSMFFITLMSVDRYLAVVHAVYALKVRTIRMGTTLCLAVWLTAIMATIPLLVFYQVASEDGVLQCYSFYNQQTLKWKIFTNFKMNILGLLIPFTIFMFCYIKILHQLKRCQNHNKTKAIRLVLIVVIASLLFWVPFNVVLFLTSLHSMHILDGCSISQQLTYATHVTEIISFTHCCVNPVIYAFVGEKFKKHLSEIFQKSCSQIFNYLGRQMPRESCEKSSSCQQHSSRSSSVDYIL
# Experiment: cell-based or functional assay
row,IC50 of blockade of CCL1-induced β-arrestin recruitment (Tango-H_CCR8-CHO-K1 cells) [mg/L],Binder
1,0.997,B1
2,0.993,B2
3,0.26,B3
4,1.76,B4

# Target: T1, human CCR8
# Experiment: cell-based or functional assay
# Remark: another data set of the same source
row,IC50 of blockade of CCL1-induced β-arrestin recruitment [mg/L],Binder
1,1.72,B5
2,1.61,B6
3,28.1,B7

# Target: T1, human CCR8
# Experiment: cell-based or functional assay
# Remark: another data set of the same source
row,EC50 of activation of Jurkat-human FcγRIIIa(158V)-NFAT with 293F-hCCR8 target cells [mg/L],Binder
1,0.0421,B7

# Target: T1, human CCR8
# Experiment: cell-based or functional assay
# Remark: another data set of the same source
row,EC50 of activation of Jurkat-human FcγRIIIa(158V)-NFAT with 293F-hCCR8 target cells [mg/L],Binder
1,0.0216,B5
2,0.0283,B6

# Target: T1, human CCR8
# Experiment: cell-based or functional assay
# Remark: another data set of the same source
row,EC50 of activation of Jurkat-human FcγRIIIa(158V)-NFAT with CHOK1-hCCR8 target cells [mg/L],Binder
1,0.0265,B7

# Target: T1, human CCR8
# Experiment: cell-based or functional assay
# Remark: another data set of the same source
row,EC50 of activation of Jurkat-human FcγRIIIa(158V)-NFAT with 293F-hCCR8 target cells [mg/L],Binder
1,0.0089,B6
2,0.0133,B7
3,0.0009,B8
4,0.0009,B9
5,0.0007,B10

# Target: T1, human CCR8
# Experiment: cell-based or functional assay
# Remark: another data set of the same source
row,EC50 of activation of Jurkat-human FcγRIIIa(158V)-NFAT with HuT78 target cells [mg/L],Binder
1,0.0083,B8
2,0.011,B9
3,0.0057,B10

# Target: T1, human CCR8
# Experiment: cell-based or functional assay
# Remark: another data set of the same source
row,EC50 of ADCC effect (lysis%) by human PBMCs on CHOK1-hCCR8 cells [mg/L],Binder
1,0.0006,B8
2,0.00031,B9
3,0.00039,B10

# Target: T1, human CCR8
# Experiment: flow cytometry on 293F-hCCR8 cells
row,EC50 [mg/L],Binder
1,0.0273,B5
2,0.0835,B1
3,0.0947,B2
4,0.273,B3
5,0.1,B4

# Target: T1, human CCR8
# Experiment: flow cytometry on 293F-hCCR8 cells
# Remark: another data set of the same source
row,EC50 [mg/L],Binder
1,0.073,B5
2,0.124,B6
3,0.114,B7
4,0.139,B3

# Target: T1, human CCR8
# Experiment: flow cytometry on CHOK1-hCCR8 cells
row,EC50 [mg/L],Binder
1,0.0423,B6
2,0.036,B7

# Target: T2, cynomolgus CCR8 (cynomolgus monkey)
# T2 construct: whole, on cells; the constructs of the cell lines are not tied to it word for word; also called cynoCCR8
# Experiment: flow cytometry on 293T-cynoCCR8 cells
row,EC50 [mg/L],Binder
1,0.072,B1
2,0.0662,B2
3,0.305,B3
4,0.0819,B4

# Target: T2, cynomolgus CCR8
# Experiment: flow cytometry on 293T-cynoCCR8 cells
# Remark: another data set of the same source
row,EC50 [mg/L],Binder
1,0.0473,B5
2,0.0264,B6
3,0.0876,B7

# Target: T1, human CCR8
# Experiment: flow cytometry on HuT78 cells (endogenous CCR8)
row,EC50 [mg/L],Binder
1,0.0545,B6
2,15.2,B7

# Target: T1, human CCR8
# Experiment: flow cytometry, competition with 10 nM AF647-human CCL1 on 293F-hCCR8 cells
row,IC50 [mg/L],Binder
1,0.0295,B5
2,0.0544,B1
3,0.0579,B2
4,0.273,B3
5,0.0649,B4

# Target: T1, human CCR8
# Experiment: as above
# Remark: another data set of the same source
row,IC50 [mg/L],Binder
1,0.0513,B5
2,0.0835,B6
3,0.15,B7
4,0.0959,B3
